The values below come from patent US10562947B2, “Compositions and methods for preventing or treating diseases, conditions or processes characterized by aberrant fibroblast proliferation and extracellular matrix deposition” (MOERAE MATRIX, INC., priority 2011, dated 2020).

Common to all, as to assay: Kinase Profiling Assay
Common to all, as to assay type: biochemical
Holding throughout (settings): 100 μM peptide

Assay [1] has as its target MST3(h) (Homo sapiens, UniProt Q9Y6E0). In outline:
(§1)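 First, MK2 inhibitor peptides were applied to a panel of 266 human kinases; then each kinase's activity was measured in duplicate to assess off-target inhibition.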

Assay [2] deals with T1, SAPK3(h) (Homo sapiens, UniProt P53778).
T1 sequence (P53778 1-367): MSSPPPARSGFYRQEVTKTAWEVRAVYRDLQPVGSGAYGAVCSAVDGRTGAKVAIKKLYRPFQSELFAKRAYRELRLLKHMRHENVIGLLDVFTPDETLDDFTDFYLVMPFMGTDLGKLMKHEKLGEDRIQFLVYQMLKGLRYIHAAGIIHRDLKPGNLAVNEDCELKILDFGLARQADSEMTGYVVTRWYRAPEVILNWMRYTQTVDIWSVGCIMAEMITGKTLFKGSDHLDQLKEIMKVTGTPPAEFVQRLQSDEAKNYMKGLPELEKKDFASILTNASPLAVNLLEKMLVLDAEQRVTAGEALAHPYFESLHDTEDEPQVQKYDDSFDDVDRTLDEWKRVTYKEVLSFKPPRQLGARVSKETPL
The method, boiled down: as §1

The target of assay [3] is T2, PRK2(h) (Homo sapiens, UniProt Q16513).
T2 construct: purchased Millipore (IC50 Profiler Express service)
In outline:
as §1

For assay [4], the target named is AMPKα1(h) (Homo sapiens, UniProt Q13131). The method, boiled down:
as §1

Assay [5] concerns the target Met(D1246H)(h) (Homo sapiens, UniProt P08581, D1228H). In outline: as §1
In assay [6] the target is PKCβI(h) (Homo sapiens, UniProt P05771). The method, boiled down: as §1
The target in assay [7] is EphA5(h) (Homo sapiens, UniProt P54756). The method, boiled down: as §1
Assay [8] addresses PKCγ(h) (Homo sapiens, UniProt P05129). The method, boiled down:
as §1

Assay [9] has as its target T3, PTK5(h) (Homo sapiens, UniProt P42685).
T3 construct: purchased Millipore (IC50 Profiler Express service)
The method, boiled down: as §1

Assay [10] concerns the target CK2(h) (Homo sapiens, UniProt P68400). In outline:
as §1

Assay [11] deals with T4, Ron(h) (Homo sapiens, UniProt Q04912).
T4 construct: purchased Millipore (IC50 Profiler Express service)
The method, boiled down:
as §1

Assay [12] deals with T5, PKD2(h) (Homo sapiens, UniProt Q9BZL6).
T5 construct: purchased Millipore (IC50 Profiler Express service)
T5 sequence (Q9BZL6 1-878): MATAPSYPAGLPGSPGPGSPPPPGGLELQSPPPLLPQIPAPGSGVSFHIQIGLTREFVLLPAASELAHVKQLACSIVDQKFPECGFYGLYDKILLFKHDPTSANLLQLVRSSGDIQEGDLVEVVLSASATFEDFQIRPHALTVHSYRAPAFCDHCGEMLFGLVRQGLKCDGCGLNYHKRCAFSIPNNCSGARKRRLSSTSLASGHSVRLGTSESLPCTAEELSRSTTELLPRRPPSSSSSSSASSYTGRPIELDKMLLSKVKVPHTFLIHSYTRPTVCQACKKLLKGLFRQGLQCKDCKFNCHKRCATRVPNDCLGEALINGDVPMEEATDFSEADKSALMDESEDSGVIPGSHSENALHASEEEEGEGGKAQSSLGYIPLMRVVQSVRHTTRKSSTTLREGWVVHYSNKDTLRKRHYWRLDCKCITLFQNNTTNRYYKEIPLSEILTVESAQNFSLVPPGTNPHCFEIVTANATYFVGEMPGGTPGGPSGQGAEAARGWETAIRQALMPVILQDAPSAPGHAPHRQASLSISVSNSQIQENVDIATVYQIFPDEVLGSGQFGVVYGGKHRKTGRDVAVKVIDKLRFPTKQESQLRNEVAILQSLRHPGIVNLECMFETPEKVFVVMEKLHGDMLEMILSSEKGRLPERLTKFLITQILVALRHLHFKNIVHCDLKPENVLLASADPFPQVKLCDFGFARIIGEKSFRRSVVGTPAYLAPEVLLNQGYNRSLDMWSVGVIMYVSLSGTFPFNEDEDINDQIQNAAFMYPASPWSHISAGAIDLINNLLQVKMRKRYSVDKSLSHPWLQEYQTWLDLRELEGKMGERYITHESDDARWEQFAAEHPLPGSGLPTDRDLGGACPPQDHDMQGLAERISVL
In outline:
as §1

For assay [13], the target named is T6, NLK(h) (Homo sapiens, UniProt Q9UBE8).
T6 sequence (Q9UBE8 1-527): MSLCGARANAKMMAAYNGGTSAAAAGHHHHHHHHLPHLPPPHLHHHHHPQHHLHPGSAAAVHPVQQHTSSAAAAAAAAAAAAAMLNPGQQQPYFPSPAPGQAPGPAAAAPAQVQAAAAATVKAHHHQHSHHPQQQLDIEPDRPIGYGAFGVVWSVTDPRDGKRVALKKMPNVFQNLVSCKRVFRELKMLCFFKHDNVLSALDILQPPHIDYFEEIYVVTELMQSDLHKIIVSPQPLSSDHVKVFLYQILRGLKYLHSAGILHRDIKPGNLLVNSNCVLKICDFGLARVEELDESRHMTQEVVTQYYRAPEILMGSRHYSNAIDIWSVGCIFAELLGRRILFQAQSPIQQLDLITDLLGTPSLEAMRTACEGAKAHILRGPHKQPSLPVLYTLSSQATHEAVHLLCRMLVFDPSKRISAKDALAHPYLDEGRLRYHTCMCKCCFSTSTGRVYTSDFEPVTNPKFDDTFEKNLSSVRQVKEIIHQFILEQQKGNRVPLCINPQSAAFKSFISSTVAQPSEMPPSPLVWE
The method, boiled down: as §1

The target of assay [14] is F1t4(h) (Homo sapiens, UniProt P35916). The method, boiled down:
as §1

Assay [15] deals with cKit(V654A)(h) (Homo sapiens, UniProt P10721, V654A). In outline:
as §1

AMPKα1(h), sequence (Q13131 whole entry): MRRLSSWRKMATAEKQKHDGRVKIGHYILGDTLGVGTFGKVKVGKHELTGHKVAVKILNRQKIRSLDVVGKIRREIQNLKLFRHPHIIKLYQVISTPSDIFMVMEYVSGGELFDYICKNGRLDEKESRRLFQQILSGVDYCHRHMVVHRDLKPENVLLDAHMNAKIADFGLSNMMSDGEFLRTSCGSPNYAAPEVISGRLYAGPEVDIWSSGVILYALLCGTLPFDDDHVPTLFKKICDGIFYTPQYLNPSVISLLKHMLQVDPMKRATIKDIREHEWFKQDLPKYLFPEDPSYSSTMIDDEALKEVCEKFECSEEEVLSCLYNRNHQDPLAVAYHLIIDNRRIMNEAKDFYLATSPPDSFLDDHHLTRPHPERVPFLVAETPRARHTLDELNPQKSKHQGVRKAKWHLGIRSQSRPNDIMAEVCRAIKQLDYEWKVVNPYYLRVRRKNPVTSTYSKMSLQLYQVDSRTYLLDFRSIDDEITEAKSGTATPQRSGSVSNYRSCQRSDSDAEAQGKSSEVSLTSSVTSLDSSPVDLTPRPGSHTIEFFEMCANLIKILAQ
AMPKα1(h), sequence (Q9Y478 whole entry partner): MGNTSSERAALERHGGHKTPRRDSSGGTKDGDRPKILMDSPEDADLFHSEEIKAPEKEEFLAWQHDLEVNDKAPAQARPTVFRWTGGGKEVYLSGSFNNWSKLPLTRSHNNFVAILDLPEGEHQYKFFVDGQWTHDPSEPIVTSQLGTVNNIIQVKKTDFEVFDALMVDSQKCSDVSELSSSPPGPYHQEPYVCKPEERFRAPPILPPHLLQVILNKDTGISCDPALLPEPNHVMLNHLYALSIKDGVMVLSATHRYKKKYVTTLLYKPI
AMPKα1(h), sequence (P54619 whole entry partner): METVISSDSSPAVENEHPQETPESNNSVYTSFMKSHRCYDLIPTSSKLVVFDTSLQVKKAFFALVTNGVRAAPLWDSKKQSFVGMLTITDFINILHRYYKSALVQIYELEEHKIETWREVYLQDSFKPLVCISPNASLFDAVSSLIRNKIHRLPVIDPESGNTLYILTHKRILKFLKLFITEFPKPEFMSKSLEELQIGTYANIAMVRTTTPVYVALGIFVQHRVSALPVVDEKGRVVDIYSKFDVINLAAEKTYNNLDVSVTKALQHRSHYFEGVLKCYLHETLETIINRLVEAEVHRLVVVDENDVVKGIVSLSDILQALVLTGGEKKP
T3 sequence (P42685 whole entry): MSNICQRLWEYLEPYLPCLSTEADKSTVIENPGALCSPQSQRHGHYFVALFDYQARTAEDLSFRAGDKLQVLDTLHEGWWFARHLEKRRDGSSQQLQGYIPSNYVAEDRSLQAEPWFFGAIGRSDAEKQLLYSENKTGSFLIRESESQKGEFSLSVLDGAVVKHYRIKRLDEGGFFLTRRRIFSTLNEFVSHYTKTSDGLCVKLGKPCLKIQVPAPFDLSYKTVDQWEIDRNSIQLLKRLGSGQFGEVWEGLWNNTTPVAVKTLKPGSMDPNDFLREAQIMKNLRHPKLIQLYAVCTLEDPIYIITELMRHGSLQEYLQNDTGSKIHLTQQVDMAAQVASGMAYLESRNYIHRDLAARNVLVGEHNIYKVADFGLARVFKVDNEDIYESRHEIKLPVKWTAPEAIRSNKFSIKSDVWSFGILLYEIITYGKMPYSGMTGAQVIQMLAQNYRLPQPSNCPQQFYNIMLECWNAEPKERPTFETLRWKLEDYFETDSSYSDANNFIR
PKCβI(h), sequence (P05771 whole entry): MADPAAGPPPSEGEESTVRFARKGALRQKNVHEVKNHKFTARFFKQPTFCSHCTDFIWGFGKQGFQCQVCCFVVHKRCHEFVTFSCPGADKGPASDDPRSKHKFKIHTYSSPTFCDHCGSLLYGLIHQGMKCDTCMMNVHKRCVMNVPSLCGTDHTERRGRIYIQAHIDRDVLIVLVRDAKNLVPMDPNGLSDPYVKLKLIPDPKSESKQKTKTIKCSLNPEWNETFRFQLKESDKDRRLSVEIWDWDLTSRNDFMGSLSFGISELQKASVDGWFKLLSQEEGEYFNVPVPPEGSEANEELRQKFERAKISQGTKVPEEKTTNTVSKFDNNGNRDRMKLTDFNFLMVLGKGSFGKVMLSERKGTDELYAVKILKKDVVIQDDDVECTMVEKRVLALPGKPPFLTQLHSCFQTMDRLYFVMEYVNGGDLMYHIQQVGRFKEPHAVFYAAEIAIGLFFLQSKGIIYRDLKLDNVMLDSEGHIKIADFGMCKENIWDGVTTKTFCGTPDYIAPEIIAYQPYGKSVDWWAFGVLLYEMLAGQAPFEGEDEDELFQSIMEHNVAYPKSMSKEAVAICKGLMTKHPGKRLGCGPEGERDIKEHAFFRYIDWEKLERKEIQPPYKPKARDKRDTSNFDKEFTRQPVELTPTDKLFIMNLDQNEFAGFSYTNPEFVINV
F1t4(h), sequence (P35916 25-1363): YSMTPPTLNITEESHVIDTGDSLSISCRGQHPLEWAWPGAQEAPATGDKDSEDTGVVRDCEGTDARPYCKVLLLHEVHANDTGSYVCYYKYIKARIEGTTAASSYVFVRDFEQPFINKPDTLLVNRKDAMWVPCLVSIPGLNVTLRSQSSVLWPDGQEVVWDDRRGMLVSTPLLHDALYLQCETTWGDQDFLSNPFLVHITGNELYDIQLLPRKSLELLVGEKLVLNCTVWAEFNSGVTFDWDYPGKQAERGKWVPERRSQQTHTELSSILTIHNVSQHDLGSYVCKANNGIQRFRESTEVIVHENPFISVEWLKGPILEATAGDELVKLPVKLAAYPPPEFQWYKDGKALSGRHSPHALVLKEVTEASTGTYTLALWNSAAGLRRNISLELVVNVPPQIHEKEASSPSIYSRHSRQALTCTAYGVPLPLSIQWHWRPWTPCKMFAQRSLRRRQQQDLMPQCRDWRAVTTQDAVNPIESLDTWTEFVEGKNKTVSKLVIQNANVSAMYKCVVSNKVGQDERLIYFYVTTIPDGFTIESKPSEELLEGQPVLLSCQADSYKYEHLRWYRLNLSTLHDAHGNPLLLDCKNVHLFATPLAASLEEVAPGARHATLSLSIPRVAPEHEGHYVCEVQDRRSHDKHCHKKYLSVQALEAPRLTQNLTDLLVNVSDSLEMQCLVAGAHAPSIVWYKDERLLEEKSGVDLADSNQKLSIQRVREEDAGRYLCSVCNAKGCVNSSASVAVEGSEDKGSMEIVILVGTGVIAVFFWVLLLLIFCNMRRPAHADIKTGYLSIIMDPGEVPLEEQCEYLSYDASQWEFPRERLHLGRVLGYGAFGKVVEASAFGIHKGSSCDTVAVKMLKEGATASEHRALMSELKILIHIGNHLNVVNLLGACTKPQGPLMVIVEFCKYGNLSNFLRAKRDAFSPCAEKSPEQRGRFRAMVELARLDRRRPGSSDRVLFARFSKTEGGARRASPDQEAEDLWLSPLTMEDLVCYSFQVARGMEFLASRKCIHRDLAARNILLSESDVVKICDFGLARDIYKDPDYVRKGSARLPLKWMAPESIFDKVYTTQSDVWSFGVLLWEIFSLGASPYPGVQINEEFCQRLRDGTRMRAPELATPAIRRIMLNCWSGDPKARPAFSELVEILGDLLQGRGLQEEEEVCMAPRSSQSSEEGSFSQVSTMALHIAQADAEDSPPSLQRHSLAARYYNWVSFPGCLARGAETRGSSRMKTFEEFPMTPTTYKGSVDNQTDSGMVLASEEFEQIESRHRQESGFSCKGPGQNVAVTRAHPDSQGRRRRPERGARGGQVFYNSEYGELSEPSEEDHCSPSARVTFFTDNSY
CK2(h), sequence (P68400 whole entry): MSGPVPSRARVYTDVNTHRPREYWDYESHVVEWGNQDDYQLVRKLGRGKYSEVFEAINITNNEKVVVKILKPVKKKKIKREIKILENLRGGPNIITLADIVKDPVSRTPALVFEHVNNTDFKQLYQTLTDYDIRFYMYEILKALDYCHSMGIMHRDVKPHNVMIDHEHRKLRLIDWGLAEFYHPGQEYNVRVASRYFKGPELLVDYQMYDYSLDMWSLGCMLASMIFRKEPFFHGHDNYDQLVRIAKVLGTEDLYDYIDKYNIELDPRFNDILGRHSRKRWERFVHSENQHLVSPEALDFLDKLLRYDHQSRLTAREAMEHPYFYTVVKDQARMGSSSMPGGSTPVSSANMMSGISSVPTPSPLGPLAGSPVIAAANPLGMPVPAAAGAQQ
CK2(h), sequence (P67870 whole entry partner): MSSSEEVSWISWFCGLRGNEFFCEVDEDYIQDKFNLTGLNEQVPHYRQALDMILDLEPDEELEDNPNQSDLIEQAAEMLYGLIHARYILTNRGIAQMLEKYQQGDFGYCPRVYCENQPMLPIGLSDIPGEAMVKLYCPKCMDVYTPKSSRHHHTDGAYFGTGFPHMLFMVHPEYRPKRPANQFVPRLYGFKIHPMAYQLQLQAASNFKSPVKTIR

As to “YARAAARQARAKALNRQLGVA (Mammalian) [MMI-0200]”, the “MST3(h) % activity” value in assay [1] is on record as 95%. Also, the “SAPK3(h) % activity” value in assay [2] was determined as 97%. In assay [3], the “PRK2(h) % activity” value is on record as 74%. The “AMPKα1(h) % activity” value in [4] was 108%. In addition, the “Met(D1246H)(h) % activity” value in assay [5] amounted to 139%. Also, the “PKCβI(h) % activity” value in assay [6] is 98%. Moreover, the “EphA5(h) % activity” value in assay [7] came to 123%. In addition, the “PKCγ(h) % activity” value in assay [8] worked out at 101%. The “PTK5(h) % activity” value in assay [9] is given as 108%. In addition, in assay [10], the “CK2(h) % activity” value is given as 83%. Also, the “Ron(h) % activity” value in assay [11] was 120%. The “PKD2(h) % activity” value in [12] is 78%.

In the case of “HRRIKAWLKKIKALARQLGVAA (Mammalian) [MMI-0500]”, the “MST3(h) % activity” value in assay [1] is recorded as 4%. Moreover, the “NLK(h) % activity” value in [13] was determined as 19%. Also, in assay [2], the “SAPK3(h) % activity” value was found to be 24%. The “F1t4(h) % activity” value in [14] was 73%. In addition, the “PRK2(h) % activity” value in [3] came out at 7%. For the same sequence, the “AMPKα1(h) % activity” value in [4] was 35%. For the same sequence, in [15], the “cKit(V654A)(h) % activity” value came to 223%. In addition, in [5], the “Met(D1246H)(h) % activity” value turned out to be 150%. Also, the “PKCβI(h) % activity” value in assay [6] is reported as 1%. In addition, the “EphA5(h) % activity” value in assay [7] was 42%. In addition, in assay [8], the “PKCγ(h) % activity” value turned out to be 6%. In addition, the “PTK5(h) % activity” value in assay [9] stood at 96%. For the same sequence, the “CK2(h) % activity” value in assay [10] is recorded as 93%. In addition, the “Ron(h) % activity” value in assay [11] stood at 46%. Besides, in [12], the “PKD2(h) % activity” value was 10%.

Consider KAFAKLAARLYRKALARQLGVAA [MMI-0400], for which the “MST3(h) % activity” value in assay [1] was 36%. In addition, the “NLK(h) % activity” value in assay [13] is 90%. Further, in [2], the “SAPK3(h) % activity” value was found to be 79%. In addition, the “F1t4(h) % activity” value in assay [14] amounted to 89%. In addition, the “PRK2(h) % activity” value in assay [3] amounted to 27%. The “AMPKα1(h) % activity” value in [4] was determined as 87%. The “cKit(V654A)(h) % activity” value in assay [15] came out at 150%. In addition, in [5], the “Met(D1246H)(h) % activity” value came to 68%. Moreover, the “PKCβI(h) % activity” value in assay [6] turned out to be 78%. Further, the “EphA5(h) % activity” value in assay [7] stood at 24%. Further, the “PKCγ(h) % activity” value in assay [8] is 79%. Further, the “PTK5(h) % activity” value in assay [9] was found to be 129%. The “CK2(h) % activity” value in assay [10] is given as 101%. Further, in assay [11], the “Ron(h) % activity” value is reported as 79%. Besides, in assay [12], the “PKD2(h) % activity” value was found to be 25%.

Take FAKLAARLYRKALARQLGVAA [MMI-0300]: the “MST3(h) % activity” value in [1] is on record as 45%. Besides, the “NLK(h) % activity” value in assay [13] was determined as 87%. Moreover, the “SAPK3(h) % activity” value in [2] was 84%. Moreover, in assay [14], the “F1t4(h) % activity” value amounted to 83%. For the same sequence, the “PRK2(h) % activity” value in [3] turned out to be 33%. Further, the “AMPKα1(h) % activity” value in assay [4] came out at 71%. In addition, the “cKit(V654A)(h) % activity” value in assay [15] was 134%. Further, the “Met(D1246H)(h) % activity” value in assay [5] was 125%. Further, in assay [6], the “PKCβI(h) % activity” value worked out at 78%. Further, in assay [7], the “EphA5(h) % activity” value was 18%. The “PKCγ(h) % activity” value in assay [8] is recorded as 89%. The “PTK5(h) % activity” value in assay [9] was found to be 132%. In addition, the “CK2(h) % activity” value in assay [10] is 90%. Moreover, the “Ron(h) % activity” value in [11] amounted to 93%. In assay [12], the “PKD2(h) % activity” value turned out to be 33%.
